Target: discoidin domain receptor 1 (DDR1) (human (endogenous in primary human umbilical artery SMCs)) (UniProt Q08345)
Test: atomic force microscopy

Chain of discoidin domain receptor 1 (DDR1) (human (endogenous in primary human umbilical artery SMCs)) (Q08345 19-913): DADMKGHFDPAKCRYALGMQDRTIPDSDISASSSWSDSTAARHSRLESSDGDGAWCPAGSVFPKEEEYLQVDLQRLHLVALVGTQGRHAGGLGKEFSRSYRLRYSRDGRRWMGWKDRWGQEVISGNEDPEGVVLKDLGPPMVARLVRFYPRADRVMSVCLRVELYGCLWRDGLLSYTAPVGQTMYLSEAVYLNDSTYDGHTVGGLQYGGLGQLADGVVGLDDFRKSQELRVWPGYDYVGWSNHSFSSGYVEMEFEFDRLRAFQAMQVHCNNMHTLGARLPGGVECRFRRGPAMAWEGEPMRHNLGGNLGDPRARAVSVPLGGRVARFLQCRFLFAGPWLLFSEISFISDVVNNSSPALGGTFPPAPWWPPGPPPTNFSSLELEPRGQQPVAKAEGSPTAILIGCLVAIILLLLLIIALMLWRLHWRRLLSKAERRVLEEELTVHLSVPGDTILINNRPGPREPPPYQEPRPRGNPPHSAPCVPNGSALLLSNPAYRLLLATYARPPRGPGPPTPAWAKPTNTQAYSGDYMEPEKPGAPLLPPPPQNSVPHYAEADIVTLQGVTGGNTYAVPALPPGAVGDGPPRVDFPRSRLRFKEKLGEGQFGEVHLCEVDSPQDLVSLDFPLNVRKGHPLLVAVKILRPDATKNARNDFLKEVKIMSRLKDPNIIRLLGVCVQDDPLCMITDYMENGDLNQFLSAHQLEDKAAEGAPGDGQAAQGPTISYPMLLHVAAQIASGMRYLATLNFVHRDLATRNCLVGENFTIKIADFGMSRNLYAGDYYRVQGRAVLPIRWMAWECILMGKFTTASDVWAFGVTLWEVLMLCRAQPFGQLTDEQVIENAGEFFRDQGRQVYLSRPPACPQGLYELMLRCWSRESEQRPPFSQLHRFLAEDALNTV
Chain of Collagen type I (Corning), P02454 152-1207; P02466 86-1125 (ligand) (P02454 152-1207): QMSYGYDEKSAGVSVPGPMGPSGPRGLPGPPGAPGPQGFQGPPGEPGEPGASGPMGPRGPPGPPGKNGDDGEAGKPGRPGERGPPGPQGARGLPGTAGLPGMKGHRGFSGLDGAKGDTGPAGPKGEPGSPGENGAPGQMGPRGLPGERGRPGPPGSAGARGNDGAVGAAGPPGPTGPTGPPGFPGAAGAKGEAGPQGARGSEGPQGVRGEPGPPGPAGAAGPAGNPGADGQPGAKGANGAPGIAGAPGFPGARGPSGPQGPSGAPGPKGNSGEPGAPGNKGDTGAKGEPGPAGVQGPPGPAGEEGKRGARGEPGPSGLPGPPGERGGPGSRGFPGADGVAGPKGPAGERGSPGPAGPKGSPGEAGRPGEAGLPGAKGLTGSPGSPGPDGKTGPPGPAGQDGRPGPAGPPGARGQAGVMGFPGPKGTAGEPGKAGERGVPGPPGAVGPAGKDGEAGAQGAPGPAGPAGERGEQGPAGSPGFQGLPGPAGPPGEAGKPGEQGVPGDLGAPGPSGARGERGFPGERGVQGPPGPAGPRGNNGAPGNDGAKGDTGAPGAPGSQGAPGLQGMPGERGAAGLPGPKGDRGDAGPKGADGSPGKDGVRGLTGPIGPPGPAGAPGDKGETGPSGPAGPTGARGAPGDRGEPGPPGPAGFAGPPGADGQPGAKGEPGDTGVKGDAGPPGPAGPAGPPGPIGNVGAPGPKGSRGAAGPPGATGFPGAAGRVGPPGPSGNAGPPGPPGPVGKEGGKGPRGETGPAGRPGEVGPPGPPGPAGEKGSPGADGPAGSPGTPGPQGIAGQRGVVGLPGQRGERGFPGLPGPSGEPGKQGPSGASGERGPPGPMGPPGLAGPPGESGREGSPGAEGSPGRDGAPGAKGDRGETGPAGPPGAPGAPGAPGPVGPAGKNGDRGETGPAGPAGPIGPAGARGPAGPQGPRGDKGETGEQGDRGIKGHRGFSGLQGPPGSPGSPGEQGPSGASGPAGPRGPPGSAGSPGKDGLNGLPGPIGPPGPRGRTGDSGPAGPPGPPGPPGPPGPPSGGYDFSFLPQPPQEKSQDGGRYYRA
Chain of Collagen type I (Corning), P02454 152-1207; P02466 86-1125 (ligand) (P02466 86-1125): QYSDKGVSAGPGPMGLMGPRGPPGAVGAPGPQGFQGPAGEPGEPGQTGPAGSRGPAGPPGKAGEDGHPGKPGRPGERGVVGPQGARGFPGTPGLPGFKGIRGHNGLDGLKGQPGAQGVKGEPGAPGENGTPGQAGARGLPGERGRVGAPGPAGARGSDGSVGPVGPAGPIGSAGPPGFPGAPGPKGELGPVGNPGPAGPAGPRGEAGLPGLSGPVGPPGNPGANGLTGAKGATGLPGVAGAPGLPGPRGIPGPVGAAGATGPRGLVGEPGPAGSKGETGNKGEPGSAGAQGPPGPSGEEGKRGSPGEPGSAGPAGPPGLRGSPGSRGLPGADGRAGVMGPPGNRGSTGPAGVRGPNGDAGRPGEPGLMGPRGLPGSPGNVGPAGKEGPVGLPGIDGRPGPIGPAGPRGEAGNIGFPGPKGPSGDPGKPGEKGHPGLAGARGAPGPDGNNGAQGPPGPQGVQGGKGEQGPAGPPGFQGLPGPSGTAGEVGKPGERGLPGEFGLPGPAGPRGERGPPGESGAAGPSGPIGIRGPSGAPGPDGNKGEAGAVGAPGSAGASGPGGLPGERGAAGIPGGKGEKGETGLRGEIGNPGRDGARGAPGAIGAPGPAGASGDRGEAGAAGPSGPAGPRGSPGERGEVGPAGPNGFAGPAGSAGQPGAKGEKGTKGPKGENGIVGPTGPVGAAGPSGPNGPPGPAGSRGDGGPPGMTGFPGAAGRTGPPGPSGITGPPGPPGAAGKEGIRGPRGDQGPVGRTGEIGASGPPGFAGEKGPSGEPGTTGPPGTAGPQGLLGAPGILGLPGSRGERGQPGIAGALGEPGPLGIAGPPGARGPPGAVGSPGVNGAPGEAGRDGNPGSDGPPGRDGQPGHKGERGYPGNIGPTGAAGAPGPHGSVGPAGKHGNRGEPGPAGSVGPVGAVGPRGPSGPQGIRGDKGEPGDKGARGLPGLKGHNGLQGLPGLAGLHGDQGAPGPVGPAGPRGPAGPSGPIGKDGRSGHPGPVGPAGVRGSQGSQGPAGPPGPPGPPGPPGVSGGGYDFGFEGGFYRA

Substance: Collagen type I (Corning), P02454 152-1207; P02466 86-1125 (ligand)
- adhesion probability (cells on soft gels): 18.3%
- adhesion probability (cells on stiff gels): 32.4%
